# Results reported in a protein production outcome set (Wang et al. 2014).
# Assay: label from the status in PepcDB records
row,Sequence,protein production
1,MQAYVLHFIALVIMSLTGTTSGAFAQNGQSTEVSGPIEDRVPHRHQERPGERMPADYGTPRLLNLGAHTFPVSTSNQLAQQYMNQGLNLSYAFNHAEAGRAFREAARLDPALAMAYWGQALVLGPNINAPMEAKNEVSALELVRKAASLAAGVSDRERALIGALEKRYTGNSEDRKANDKAYANAMREVHRRFSGDQDIAMLFVESVMDTSPWGYWMRDDYPMEGTREIVAVTEGVLQGNPRHPGATHMYIHLMEPTNMPERAAQAADTLLTLMPDAGHLIHMPSHIYLRVGRYEDAIIANQRAIAADVRYLVRQHEHGFYAMAYFPHNIHFLGAAATADGQSELAIDSARKVASTIDDAVLKEMPMTGVFRVVPYWALTRFGKWDEMLQEPEPPSSNAFLKGGWHYARGLAFVAKRQLSEAEQELAALREIMKDDSLDGPLLSVNTARSVLRIGPAVLAGEIAAARGQFNSAIAHLEQAVRLEDSLAYTEPPEWQAPPRLTLGAILLEAGHPAEAETVYWEDLRRNRNNGWALYGLLQALRAQGKNERAALVEERFNKAWARADVKLGASRFGCVFSPMTMAGQSR,failed
2,MQCRDHSTHLVSLPNSQGPAVPFTMRRPVRPPSVPMSRYRTAPLATTELPPGIPFIIGNELAERFSYYGMRAILVVFMTRYLVDAAGNPAPMQEGEAKGYFHLFVSLTYFTPFLGALLADGVLGKYRTIIALSLVYCLGHFALALDDTRTGLLLGQSLIALGAGGIKPCVSAHVGDQFGQSNRHLLSQIYGWFYLAINLGAFVSMLLIPWLLERHGASVAFAVPGLLMLIATLVFWAGRHRFVHIPPGGMRFIREAWSSEGRRGVGRLIGVFLFITMFWALFDQTGSSWVLQSQRMDRVLFGHAILPSQIQAANPLLIVLLTPFFHHLLYPALARLIPMTALNKIALGLSFTVLAFALAAWIQMRIDTGLKPSIGWQLLAYLLLTSAEVMVSITSLEFAYTQAPLTMKSFVMALYLGAVALGNLFTALVNFWIERSKTPWLDGAGYFWFFTGLMLATALGFFAYSRNYREELHLQTER,failed
3,MQDFWHAASAQLESELTPQQFKTWIKPLTPLSFDEQACMLRIAAPNRFKLDWVKSQFSGRIQSLACDYWEMQVDVQFVLDPTAGQRQAAMQPALAPMPMQPLAAQTMQAQAVPREAPARPTMAPYRETPMATAAHAAADIDVPVMDAAEASTQSYRVPAPAAPAVMGGLSAPPAAPVDDTVHERSRLNPILTFDNLVTGKANQLARAAAVQVANNPGKSYNPLYLYGGVGLGKTHLIHAIGNFMLMENPRARIRYIHAEQYVSDVVKAYQRKAFDDFKRYYHSLDLLLIDDIQFFSGKNRTQEEFFYAFEALIANRAQVIITSDTYPKEITGIDDRLISRFDSGLTVAIEPPELEMRVAILMKKAQAENVTVPEEVAFFVAKHLRSNVRELEGALRKILAYSNFHGKEITIEVTREALKDLLTVQNRQISVENIQKTCADFYNIKVADMYSKKRPANIARPRQIAMYLAKELTQKSLPEIGELFGGRDHTTVLHAVRKIADERSKDAQLNHELHVLEQTLKG,failed
4,MQDLNDIALFAAVVKHNGFSAAARDLNVPKSKLSKHVARLEEQLGVRLLERSTRKLRMTEVGRIFYEHAQGLLDGVAAAEAEIAAVRAEPTGVVRLACPIGFTPMLADILPAFHRRYPGVRLLITASNRRIDLIEERIDVALRARDQLDTDSQLIVRKFGEVRQRLAASPTLLARLGEITTDNLSQMPTLSMNEQHPNDVWRLVHATGGAIEIAHRPVVGCSDFLILERAAIEGMGIALLPDHICERAFRTGALVPVLPEWTSGNVMVHLVFPSRHGLLPATRALIDFLAENLIKALERCREVDPRPAASFEI,failed
5,MQDNSVNETKNIVEVGIDSSIEESYLAYSMSVIIGRALPDARDGLKPVHRRILYAMHELGLTSKVAYKKSARIVGDVIGKYHPHGDNAVYDALVRMAQDFSMRLELVDGQGNFGSIDGDNAAAMRYTEARMTKASEEILRDIDKDTIDFVPNYDDTLKEPDILPSRLPNLLVNGANGIAVGMATSIPPHRMDEIIDALVHVLENPNAGLDEILEFVKGPDFPTGGIIYGKAGIIEAYKTGRGRVKVRAKVHVEKTKNKEIIVLDEMPFQTNKAKLVEQISDLAREKQIEGISEVRDESDREGIRVVIELKRDAMSEIVLNHLYKLTTMETTFSIILLAIYNKEPKIFTLLELLHLFLNHRKTIIIRRTIFELEKAKARAHILEGYLIALDNIDEIVRLIKTSQSPEAAKNALMERFTLSEIQSKAILEMRLQRLTGLERDKIKEEYQNLLELIDDLNGILKSEDRLNGVVKTELLEVKEQFSSPRRTEIQESYENIDIEDLIANEPMVVSMSYKGYVKRVDLKAYEKQNRGGKGKLSGSTYEDDFIENFFVANTHDILLFITNKGQLYHLKVYKIPEASRIAMGKAIVNLISLAPDEKIMATLSTKDFSDERSLAFFTKNGVVKRTNLSEFESNRSCGIRAIVLDEGDELVSAKVVDKNAKHLLIASHLGIFIKFPLEEVREIGRTTRGVIGIKLNENDFVVGAVVISDDGNKLLSVSENGLGKQTLAEAYRGQSRGGKGVIGMKLTQKTGNLVGVISVDDENLDLMILTASAKMIRVSIKDIRETGRNASGVKLINTADKVMYVNSCPKEEEPENLETSSAQNLFE,failed
6,MQDRMLRRVFILAGIALLLWVLYLLKPVVIPFVGAFLIAYLFSPLVEKLSKIGLPRWLSISIVFIGIGVLLTWAMWYVVPLVWQQLMYARDSIPSGIHWVNATFLPWVSHTFNVERMEIDTDQISTVVMEYIQTNYSADSIQTMALRLAQSGLNFIQIGGTIVLIPIISFYFLLDWDRMLNSLRRLIPRPYEESTLRIVYECHSVLGAFVKGQFLVMLLLGIVYAVGLQLIGLEVGLIIGMVAGLASIIPYLGFAVGIIAAVIATVFQFGVDWMQLALVGVVFMIGQAVEGYILQPFLLGDKIGLSPVAVVFAVLAGAQLAGFLGMLIALPVAAVIVVLLRHLREAYEHTQMYAGTATVVSTGNGEHISIETENLDLDIEVKNPQDTDTSIDNDRK,failed
7,MQEIQRFNKVLKSCVLFGDIILLNSLLWGFELVLGSRFYSGNLTSLYQGMVLLSLCYLVCNIQSGVILHHPVVRPEQIMIRVLRNMVPFILFSICFLSLFHFEFFRSRLFGLFYVALLIILICYRLAFRYFLELYREKGGNVRMVVLVGSHENMQELYHSMTDDPTSGYRVMGYFEDSPSDYYPEEVAYLGQPKEAIEYLERNSGKIAQLYCSLPSVRSAEIVPIINYCENHLVRFFSVPNVRNYLKRRMYFDLLGNVPVLSIRREPLELRENRVLKRFFDIIFSLIFLCTIFPFVYIIIGIAIKISSPGPIFFKQKRSGEDGREFWCYKFRSMRVNAQCDVLQATANDPRKTRIGEFIRKTSIDELPQFINVLMGDMSVVGPRPHMLKHTEEYAQVINKFMVRHFVKPGITGWAQVTGYRGETKELWQMEGRVSRDIWYIEHWTFMLDLYIIYKTVYNAIHGEKEAY,failed
8,MQEISAYTLIKEKLQAIPNLRHKGILFEKISKQFLQEHDSANEYESIDLWYDWKLRGNERDKGIDIVITTFKQRIHRCAMQIPSK,failed
9,MQFGVTKESQCHYLTDQEERLVVALPNDLENLNADAYQQLMQYGFRRSHNDVYRPHCRLCSACQSLRVVVPEFRFSKNQKRILKKNDDLTLQIKQQPEAEYSQLFSQFIEQRHADGEMYPPDPDKFWKWIDCDWLTPELLEWRNASNELMIVSVVDRTVDAMSAVYTFFHPDEEKRSPGTFAVLEMIRLAQEREVARLYLGYQIDDCKKMNYKTRFAPYERLVGNHWKKELKSHTLKAQNKD,failed
10,MQFPSIEDLRARNTMKWTRYGQGVLPLWVAESDFSTCPAVLQAITDAVQREAFGYQPDGSLLSQATAEFYADRYGYQARPEWIFPIPDVVRGLYIAIDHFTPAQSKVIVPTPAYPPFFHLLSATQREGIFIDATGGINLHDVEKGFQAGARSILLCNPYNPLGMVFAPEWLNELCDLAHRYDARVLVDEIHAPLVFDGQHTVAAGVSDTAASVCITITAPSKAWNIAGLKCAQIIFSNPSDAEHWQQLSPVIKDGASTLGLIAAEAAYRYGTDFLNQEVAYLKNNHDFLLHEIPKRIPGAKITPMQATYLMWIDFRDTTIEGSPSEFFIEKAKVAMNDGAWFGEDGTGFCRLNFATSREVLEEAIDRMAKAVSHHT,not failed
11,MQFYNRQKELKLMELLDQGKPSFFVITGKRRVGKTELIKQFTRNRKALYLFVDSNKSINILMDEFDRLLKEKLDLPDYIKVDEPENFLKFITSYDRDLVIAIDEFQRFQKVYPSFITQLQRYWDMKPDNCRIFLIVSGSSIGMIRKIFIEEQAPLFKRADNILTIKPFTVLETFEMLDGMGIKNPEEKLNLYFLFGGTVYYYRLFEKYQCTGFDDALEKLIFSEFAPLKNEVREILIEEFGKEHSTYYEIISAISQGRCSMSEISDMTHVSSSSLSPYFYDLIDLLGVVEHRIPVMDNPEKSKRGRYFLKDNFFRFYGRFIYPMYSRYMAGNYSPMLEKVRKEWQSYTGKIFEDIVHELLVEKMISDYPELGSWWNRKGDEIDILGVDHRGRKSLVIEVKNKELAENEAREILELTLDKTKLVKGISGQKLKVGIVAQKVKGRKNLEDDGFLVWELEELIPLEHHHHHH,failed
12,MQGFTAYLVGFAIVAGFAVALGFIFGIFNQIVAQLNTDPNNPMISQEFVDAINLAQSLGGTGLTLAIAALIVGLAMLLIAVIRSYSGV,failed
13,MQGHHAAARALRRQGRLGEAIARYRAALAATPGAAVLQAEMAECLFAAGQAEAAVKALGQAVRLDPDNATHRGNLAMLLARKGDLAGAIDHARAAVRLAPKDGALRLRLARLLIAAGHPREAEAEALDATRRLPREAASWIALAGARLLDQRPNDAEAPSARALALAPNDAEALSLRTDLLLSLGRLAEAEATARLALKRQPTSLAALVALSKAKTFRPDDPDWPALAALLPSLGERSAEEAVKLHFASAKALEDMGRDDEAFAHYQAGNSLKGRGLPDELPALSAMVDSLERWTPKLRPVGEGDPLPVFIVGMPRSGTTLVEQILDRHRAIHGAGEILLFGERVVANGLGGYSADPQGLDPERLAALGADYRDRLRGLAPRAGRIINKTPGNWLHLGLIAAALPGARIIWCRRDPVDCCLSCFRNLFGQGHAWTTDLGRAGRYYRLQERLTGHWQAVLGDERMTAVDYEALVADPEAEARRLVAHLGLEWDEACLDHTRGGRAVTTLSQVQVRQPITDASVGRGRRFQTHLGPLLTALDGR,failed
14,MQGQNQQQAYDRGITIFSPDGRLYQVEYAREAVKRGTASIGVRTSDGVVLAVDKRIRSPLMERSSVEKIHKADDHIGIASAGHVADARQLIDFARRQAQVNQLRYGEPVGVETLTKEITDYIQQYTQVGGARPFGVALIIGGIVNGEPRLFETDPSGTPYEWKALAVGADRGDIRDYLEEHYDEGMDLDEGVDLALAALASVNDDELSPEGIGVATVDVETETFGQLTDEEKEAHLAEADLLDTGEDADDEAEDEDATEE,failed
15,MQGQWGYVAISFIIGIAIAFSSSVIWLTCCLVLNVFFCLYRTPRKTFFYCMIACLSGAMYTTYVQGQNNPLGDSYEATRGVIHNTPLINGDRLSFQVEDQNKNIVQLSYKMKSALEKKQMRQLHAGVSCVFEGERKEPQIARNFHGFNYRDYLYKQNIHFILDATYISECHKTSLSLVQWILLLRQQAISEVAEMFPEQSGAFMNALVFGDRQQMTFEVEEQYQQFGLVHLLAISGSHIVLLMVIVYFILLRSGVTREVATVCLIFCIPLYMILAGASPSVIRASITGVFMLIAFMCSIRLSSLDALSITAICMLIFDPYLVFNIGFQFSFVGSFALLLSTPLLLESGNGVIRNSIYISFISQLVSTPILLYHFGYFSPYSIFLNILYVPFLSLVVLSCSIVILICIPVIPFLAKRLANVLSIGLNLSNDFLSYCENLPFTRLNFGQTSILLVALYCVSIISILMVWERRMAKGILFISAGVFLFISTCHYVYPYFRESGSVTFLDVGQGDAILIRLPYDQEIYLIDTGGTILPNKEEWQRKKHEFSVGNDILIPYLQKEGIKKIDKLIITHGDADHIGAAQQLLSNITVKEVVFGRKEQDAELEKIVKKQALEKKVKIREVREGESWSINGAEFFVLAPTGKESSENNASIVMLAKLGGLTWLFTGDLEEEGEKFLVATYPELRADVLKVAHHGSNTSSTTPFLSVVQPNIAVISVGERNRYGHPHKDVIERFEKRGIEIWRTDKQGAISYVFKGENGTFRSKITYDETHNR,failed
